The subject of this assay is mutant form of α-Gal A expressed in HEK-293 cells. Description: HEK assay (GLP HEK / Migalastat Amenability Assay): α-Gal A activity in lysates of transiently transfected HEK-293 cells incubated with or without 10 μM migalastat. The format is cell-based, human. Particulars: for Absolute increase (% WT) / Relative increase: 10 μM migalastat versus baseline; for Baseline α-Gal A activity (% WT): absence of migalastat; for Baseline α-Gal A activity (% WT) / 10 μM migalastat α-Gal A activity (% WT): percentage of baseline wild-type α-Gal A activity; for Baseline α-Gal A activity (% WT) / Baseline α-Gal A activity / 10 μM migalastat α-Gal A activity / 10 μM migalastat α-Gal A activity (% WT): mean ± SEM; for Baseline α-Gal A activity / 10 μM migalastat α-Gal A activity: lysates of HEK-293 cells transiently transfected with the mutant form; for Baseline α-Gal A activity: incubated 5 days in absence of migalastat; for 10 μM migalastat α-Gal A activity: incubated 5 days with 10 μM migalastat; for 10 μM migalastat α-Gal A activity (% WT): with 10 μM migalastat, 5 days. An outline of the steps:
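HEK-293 cells transiently transfected with mutant α-Gal A and incubated with or without 10 μM migalastat; lysate activity given as nmol free 4-MU released per mg protein per hour. Values are mean±SEM.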

B1: I317M (protein)
chain: MQLRNPELHLGCALALRFLALVSWDIPGARALDNGLARTPTMGWLHWERFMCNLDCQEEPDSCISEKLFMEMAELMVSEGWKDAGYEYLCIDDCWMAPQRDSEGRLQADPQRFPHGIRQLANYVHSKGLKLGIYADVGNKTCAGFPGSFGYYDIDAQTFADWGVDLLKFDGCYCDSLENLADGYKHMSLALNRTGRSIVYSCEWPLYMWPFQKPNYTEIRQYCNHWRNFADIDDSWKSIKSILDWTSFNQERIVDVAGPGGWNDPDMLVIGNFGLSWNQQVTQMALWAIMAAPLFMSNDLRHISPQAKALLQDKDVMAINQDPLGKQGYQLRQGDNFEVWERPLSGLAWAVAMINRQEIGGPRSYTIAVASLGKGVACNPACFITQLLPVKRKLGFYEWTSRLRSHINPTGTVLLQLENTMQMSLKDLL
As for B1, the “Absolute increase (% WT)” value stood at 10.2 % WT, the Relative increase turned out to be 11.7, the “Baseline α-Gal A activity (% WT)” value was 1 ± 0.1 % WT and the “Baseline α-Gal A activity” value was 340 ± 29 nmol/mg/h. Besides, the “10 μM migalastat α-Gal A activity” value was determined as 3988 ± 177 nmol/mg/h and the “10 μM migalastat α-Gal A activity (% WT)” value came out at 11.2 ± 0.8 % WT.

B2: I317V (protein)
chain: MQLRNPELHLGCALALRFLALVSWDIPGARALDNGLARTPTMGWLHWERFMCNLDCQEEPDSCISEKLFMEMAELMVSEGWKDAGYEYLCIDDCWMAPQRDSEGRLQADPQRFPHGIRQLANYVHSKGLKLGIYADVGNKTCAGFPGSFGYYDIDAQTFADWGVDLLKFDGCYCDSLENLADGYKHMSLALNRTGRSIVYSCEWPLYMWPFQKPNYTEIRQYCNHWRNFADIDDSWKSIKSILDWTSFNQERIVDVAGPGGWNDPDMLVIGNFGLSWNQQVTQMALWAIMAAPLFMSNDLRHISPQAKALLQDKDVVAINQDPLGKQGYQLRQGDNFEVWERPLSGLAWAVAMINRQEIGGPRSYTIAVASLGKGVACNPACFITQLLPVKRKLGFYEWTSRLRSHINPTGTVLLQLENTMQMSLKDLL
B2: the “Absolute increase (% WT)” value came to 18.6 % WT, the Relative increase worked out at 1.3, the “Baseline α-Gal A activity (% WT)” value worked out at 55 ± 6.1 % WT and the “Baseline α-Gal A activity” value worked out at 14885 ± 1495 nmol/mg/h. Further, the “10 μM migalastat α-Gal A activity” value stood at 19927 ± 1565 nmol/mg/h and the “10 μM migalastat α-Gal A activity (% WT)” value is listed as 73.6 ± 5.5 % WT.

B3: A318T (protein)
chain: MQLRNPELHLGCALALRFLALVSWDIPGARALDNGLARTPTMGWLHWERFMCNLDCQEEPDSCISEKLFMEMAELMVSEGWKDAGYEYLCIDDCWMAPQRDSEGRLQADPQRFPHGIRQLANYVHSKGLKLGIYADVGNKTCAGFPGSFGYYDIDAQTFADWGVDLLKFDGCYCDSLENLADGYKHMSLALNRTGRSIVYSCEWPLYMWPFQKPNYTEIRQYCNHWRNFADIDDSWKSIKSILDWTSFNQERIVDVAGPGGWNDPDMLVIGNFGLSWNQQVTQMALWAIMAAPLFMSNDLRHISPQAKALLQDKDVITINQDPLGKQGYQLRQGDNFEVWERPLSGLAWAVAMINRQEIGGPRSYTIAVASLGKGVACNPACFITQLLPVKRKLGFYEWTSRLRSHINPTGTVLLQLENTMQMSLKDLL
B3: the “Absolute increase (% WT)” value came to 17.7 % WT, the Relative increase stood at 1.3, the “Baseline α-Gal A activity (% WT)” value is 45.2 ± 2.8 % WT and the “Baseline α-Gal A activity” value turned out to be 16954 ± 1483 nmol/mg/h. The “10 μM migalastat α-Gal A activity” value came out at 22296 ± 1232 nmol/mg/h and the “10 μM migalastat α-Gal A activity (% WT)” value is 62.9 ± 4.6 % WT.

B4: A318P (protein)
chain: MQLRNPELHLGCALALRFLALVSWDIPGARALDNGLARTPTMGWLHWERFMCNLDCQEEPDSCISEKLFMEMAELMVSEGWKDAGYEYLCIDDCWMAPQRDSEGRLQADPQRFPHGIRQLANYVHSKGLKLGIYADVGNKTCAGFPGSFGYYDIDAQTFADWGVDLLKFDGCYCDSLENLADGYKHMSLALNRTGRSIVYSCEWPLYMWPFQKPNYTEIRQYCNHWRNFADIDDSWKSIKSILDWTSFNQERIVDVAGPGGWNDPDMLVIGNFGLSWNQQVTQMALWAIMAAPLFMSNDLRHISPQAKALLQDKDVIPINQDPLGKQGYQLRQGDNFEVWERPLSGLAWAVAMINRQEIGGPRSYTIAVASLGKGVACNPACFITQLLPVKRKLGFYEWTSRLRSHINPTGTVLLQLENTMQMSLKDLL
Take B4: the “Absolute increase (% WT)” value came out at 6.5 % WT, the Relative increase came out at 5.3, the “Baseline α-Gal A activity (% WT)” value came out at 1.5 ± 0.2 % WT and the “Baseline α-Gal A activity” value amounted to 526 ± 42 nmol/mg/h. Moreover, the “10 μM migalastat α-Gal A activity” value was 2799 ± 174 nmol/mg/h and the “10 μM migalastat α-Gal A activity (% WT)” value is 8 ± 0.8 % WT.

B5: A318D (protein)
chain: MQLRNPELHLGCALALRFLALVSWDIPGARALDNGLARTPTMGWLHWERFMCNLDCQEEPDSCISEKLFMEMAELMVSEGWKDAGYEYLCIDDCWMAPQRDSEGRLQADPQRFPHGIRQLANYVHSKGLKLGIYADVGNKTCAGFPGSFGYYDIDAQTFADWGVDLLKFDGCYCDSLENLADGYKHMSLALNRTGRSIVYSCEWPLYMWPFQKPNYTEIRQYCNHWRNFADIDDSWKSIKSILDWTSFNQERIVDVAGPGGWNDPDMLVIGNFGLSWNQQVTQMALWAIMAAPLFMSNDLRHISPQAKALLQDKDVIDINQDPLGKQGYQLRQGDNFEVWERPLSGLAWAVAMINRQEIGGPRSYTIAVASLGKGVACNPACFITQLLPVKRKLGFYEWTSRLRSHINPTGTVLLQLENTMQMSLKDLL
Regarding B5, the “Absolute increase (% WT)” value is 16.9 % WT, the Relative increase was found to be 1.4, the “Baseline α-Gal A activity (% WT)” value is on record as 42.5 ± 3.6 % WT and the “Baseline α-Gal A activity” value was determined as 15357 ± 1499 nmol/mg/h. Moreover, the “10 μM migalastat α-Gal A activity” value was 20838 ± 1817 nmol/mg/h and the “10 μM migalastat α-Gal A activity (% WT)” value is recorded as 59.4 ± 5.3 % WT.

B6: A318V (protein)
chain: MQLRNPELHLGCALALRFLALVSWDIPGARALDNGLARTPTMGWLHWERFMCNLDCQEEPDSCISEKLFMEMAELMVSEGWKDAGYEYLCIDDCWMAPQRDSEGRLQADPQRFPHGIRQLANYVHSKGLKLGIYADVGNKTCAGFPGSFGYYDIDAQTFADWGVDLLKFDGCYCDSLENLADGYKHMSLALNRTGRSIVYSCEWPLYMWPFQKPNYTEIRQYCNHWRNFADIDDSWKSIKSILDWTSFNQERIVDVAGPGGWNDPDMLVIGNFGLSWNQQVTQMALWAIMAAPLFMSNDLRHISPQAKALLQDKDVIVINQDPLGKQGYQLRQGDNFEVWERPLSGLAWAVAMINRQEIGGPRSYTIAVASLGKGVACNPACFITQLLPVKRKLGFYEWTSRLRSHINPTGTVLLQLENTMQMSLKDLL
Turning to B6, the “Absolute increase (% WT)” value is given as 16.5 % WT, the Relative increase is reported as 1.4, the “Baseline α-Gal A activity (% WT)” value stood at 37.9 ± 2.1 % WT and the “Baseline α-Gal A activity” value was determined as 14603 ± 1377 nmol/mg/h. Moreover, the “10 μM migalastat α-Gal A activity” value was found to be 19658 ± 1108 nmol/mg/h and the “10 μM migalastat α-Gal A activity (% WT)” value came to 54.4 ± 3.5 % WT.

(Values after US11833164B2, “Methods of treating Fabry disease in patients having a mutation in the GLA gene” (Amicus Therapeutics, Inc., priority 2019, dated 2023).)
